Data: patent US20260242478A1 (published 2026)
Where no end group is shown, it is not given here.

B1: Phage-2862 (peptide)
peptide: TGAYCVPQWMCSGF
modifications: cysteine pairing not given here; also: fused to phage pIII, linker not given here
notes: Clonal phage of the Peptide-180 library; not shown: pIII filament protein of the display bacteriophage
B2: Phage-2888 (peptide)
peptide: VSKVCKPAWMCEGL
notes: tested as crude clonal phage supernatant
B3: Phage-2885 (peptide)
peptide: NPPYCVPAWMCAGF
notes: as for B2
B4: Phage-2878 (peptide)
peptide: ESARCVPMWMCNGF
notes: as for B2
B5: Phage-2884 (peptide)
peptide: EFMRCTPPWMCLGF
notes: as for B2
B6: Phage-2861 (peptide)
peptide: WDRLCIPAWMCSGF
modifications: cysteine pairing not given here; also: fused to pIII of display bacteriophage, linker and sequence not given here
notes: as for B1
B7: Phage-2879 (peptide)
peptide: VTVICKPQWMCVGF
notes: as for B2
B8: Phage-2891 (peptide)
peptide: EAHICRPLWMCTGF
notes: as for B2
B9: Phage-2858 (peptide)
peptide: TQAMCKPAWMCQGF
modifications: cysteine pairing not given here; also: fused to pIII of display bacteriophage, linker and sequence not given here
notes: as for B1
B10: Phage-2882 (peptide)
peptide: PERMCIPSWMCEVL
notes: as for B2
B11: Phage-2886 (peptide)
peptide: DGIKCVPRWMCDGF
notes: as for B2
B12: Phage-2859 (peptide)
peptide: WEFVCKPEWMCTGF
modifications: cysteine pairing not given here; also: fused to phage pIII, linker not given here
notes: as for B1
B13: Phage-2890 (peptide)
peptide: QEVYCKPAWMCDGF
notes: as for B2
B14: Phage-2887 (peptide)
peptide: SLPLCKPLWMCEGF
notes: as for B2
B15: Phage-2863 (peptide)
peptide: FNVMCRPAWMCDFL
modifications: cysteine pairing not given here; also: fused to pIII of display bacteriophage, linker and sequence not given here
notes: as for B1
B16: Phage-2860 (peptide)
peptide: EWILCKPAWMCDGL
modifications: cysteine pairing not given here; also: fused to pIII of display bacteriophage, linker and sequence not given here
notes: as for B1
B17: Phage-2881 (peptide)
peptide: GDPVCKPTWMCLGF
notes: as for B2
B18: Phage-2880 (peptide)
peptide: MHLMCKPAWMCAGF
notes: as for B2
B19: Phage-2889 (peptide)
peptide: MASLCVPSWMCTGF
notes: as for B2
B20: Phage-2883 (peptide)
peptide: WDAKCVPRWMCDGF
notes: as for B2

Legend:
PSMA Fab [1] = molecular target: T1, PSMA Fab; experiment: clonal phage ELISA on captured PSMA Fab pre-incubated with PSMA antigen as competitor, anti-M13 HRP detection;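 note: crude clonal phage supernatants tested by ELISA, wells first treated with blocking buffer plus PSMA antigen, bound phage read out via HRP-linked anti-M13 antibody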
T1 construct: Biotinylated and captured on neutravidin coated plates in the phage ELISA; also called Anti-PSMA Fab; 006 PSMA Fab
Description: (§1) Clonal phage were harvested as crude supernatants and screened via standard ELISAs. […] Prior to the addition of clonal phage. wells were incubated with blocking buffer and PSMA antigen or blocking buffer alone. Without washing or aspirating, clonal phage supernatants were then added to the wells and incubated for a short time. Wells were then washed followed by detection of bound phage using a horse radish conjugated anti-M13 antibody.

PSMA Fab [2] = molecular target: T1, PSMA Fab; experiment: clonal phage ELISA on biotinylated PSMA Fab captured on neutravidin plates, anti-M13 HRP detection;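 note: crude clonal phage supernatants tested, before phage were added, wells were pretreated with PSMA antigen in blocking buffer or with blocking buffer only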
Description: as §1

PSMA Fab [3] = molecular target: T2, PSMA Fab; experiment: clonal phage ELISA; biotinylated PSMA Fab on neutravidin plate, anti-M13 HRP detection
T2 construct: also called Anti-PSMA Fab; 006 PSMA Fab
Description: as §1

PSMA Fab [4] = molecular target: T2, PSMA Fab; experiment: clonal phage ELISA on captured PSMA Fab; wells pre-incubated with PSMA antigen as competitor
Description: as §1

006 PSMA Fab [5] = molecular target: T3, 006 PSMA Fab; experiment: phage ELISA; biotinylated PSMA Fab on neutravidin plate, blocking buffer alone, anti-M13-HRP detection
T3 construct: also called Anti-PSMA Fab
Description: as §1

006 PSMA Fab [6] = molecular target: T3, 006 PSMA Fab; experiment: phage ELISA; biotinylated PSMA Fab on neutravidin plate, wells pre-incubated with PSMA antigen as competitor, anti-M13-HRP detection
Description: as §1

PSMA Fab [7] = molecular target: T4, PSMA Fab; experiment: clonal phage ELISA on biotinylated PSMA Fab captured on neutravidin plates, anti-M13-HRP detection, no PSMA antigen
T4 construct: Biotinylated and captured on neutravidin plates in the phage ELISA; also called anti-PSMA Fab; 006 PSMA Fab
Description: as §1

PSMA Fab [8] = molecular target: T4, PSMA Fab; experiment: clonal phage ELISA on captured PSMA Fab, wells pre-incubated with PSMA antigen as competitor, anti-M13-HRP detection;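 note: crude clonal phage supernatants added without washing after the PSMA preincubation, comparison wells received blocking buffer alone without PSMA, bound phage read after washing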
Description: as §1

Binder	Phage binding ELISA signal, Anti-PSMA Fab with PSMA antigen (PSMA Fab [1])	Phage binding ELISA signal, Anti-PSMA Fab (PSMA Fab [2])	Phage binding ELISA signal, Anti-PSMA Fab (006 PSMA Fab [5])	Phage binding ELISA signal, Anti-PSMA Fab in presence of PSMA antigen (006 PSMA Fab [6])	also measured
IIRHCVPMWMCQGF [Phage-2873]	0.224	2.39			
SMPRCVPVWMCEGF [Phage-2875]	0.107	2.39			
B1					Phage binding ELISA signal, Anti-PSMA Fab (PSMA Fab [3]): 2.43; Phage binding ELISA signal (Anti-PSMA Fab, with competitor) (PSMA Fab [4]): 0.112
B2			2.36	0.104	
ALPQCVPAWMCLGF [Phage-2893]					phage binding ELISA signal (PSMA Fab [7]): 2.35; phage binding ELISA signal in presence of PSMA (PSMA Fab [8]): 0.0796
B3			2.37	0.0765	
B4			2.38	0.0714	
B5			2.37	0.12	
VLPMCSPPWMCIGL [Phage-2867]	0.0912	2.4			
B6					Phage binding ELISA signal, Anti-PSMA Fab (PSMA Fab [3]): 2.43; Phage binding ELISA signal (Anti-PSMA Fab, with competitor) (PSMA Fab [4]): 0.197
B7			2.38	0.0878	
B8			2.36	0.0899	
B9					Phage binding ELISA signal, Anti-PSMA Fab (PSMA Fab [3]): 2.44; Phage binding ELISA signal (Anti-PSMA Fab, with competitor) (PSMA Fab [4]): 0.0783
WPQLCVPMWMCAGL [Phage-2869]	0.148	2.4			
B10			2.38	0.1	
B11			2.36	0.146	
TSPACVPSWMCVGF [Phage-2866]	0.071	2.4			
TLSMCVPTWMCTGF [Phage-2877]	0.115	2.38			

Binder	Phage binding ELISA signal, Anti-PSMA Fab with PSMA antigen (PSMA Fab [1])	Phage binding ELISA signal, Anti-PSMA Fab (PSMA Fab [2])	Phage binding ELISA signal, Anti-PSMA Fab (006 PSMA Fab [5])	Phage binding ELISA signal, Anti-PSMA Fab in presence of PSMA antigen (006 PSMA Fab [6])	also measured
IDILCRPLWMCNGM [Phage-2872]	0.113	2.39			
B12					Phage binding ELISA signal, Anti-PSMA Fab (PSMA Fab [3]): 2.43; Phage binding ELISA signal (Anti-PSMA Fab, with competitor) (PSMA Fab [4]): 0.102
ETPFCIPQWMCDGF [Phage-2892]					phage binding ELISA signal (PSMA Fab [7]): 2.35; phage binding ELISA signal in presence of PSMA (PSMA Fab [8]): 0.123
MSPLCKPVWMCAGF (cysteine pairing not given here; also: displayed on phage by fusion to pIII) [Phage-2865]	0.0828	2.4			
B13			2.36	0.104	
IETWCVPRWMCEGF [Phage-2864]	0.234	2.42			
ETLRCEPMWMCMGF [Phage-2874]	0.0975	2.39			
B14			2.36	0.0872	
B15					Phage binding ELISA signal, Anti-PSMA Fab (PSMA Fab [3]): 2.42; Phage binding ELISA signal (Anti-PSMA Fab, with competitor) (PSMA Fab [4]): 0.158
DDIRCKPAWMCMGF [Phage-2876]	0.127	2.38			
B16					Phage binding ELISA signal, Anti-PSMA Fab (PSMA Fab [3]): 2.43; Phage binding ELISA signal (Anti-PSMA Fab, with competitor) (PSMA Fab [4]): 0.0639
LERVCKPLWMCTGL [Phage-2871]	0.134	2.39			
B17			2.38	0.09	
EPIRCVPQWMCVGF [Phage-2868]	0.0918	2.4			
B18			2.38	0.118	
SEFWCVPAWMCEGF [Phage-2870]	0.0842	2.4			
B19			2.36	0.0629	
B20			2.37	0.125	
